This is an account of results in the DeepSol protein solubility set.

This data set can be described thus: soluble on expression in E. coli; label from the status in PepcDB or PDB records.
Regarding “MSLADERIEVLKDILLELHHGASAESVQERFNQHFKGVSAIEISMMEHELMNADTGITFEDVMGLCNVHANLFKGAIADVDVPDAEQEGHPVKVFKDENLALRAAIMRIRRIIENYTKPENEDFRQEILKGLKHQFDLLGQFYHHYTRKEKLFFPIMERYGHDSPPKVMWGVDDDIRDLFKDAKATLAKLPDGSIEELSQKFEAFAKEFEEMIFKEEAILLMILLESFTQDDWLQIASESDAYGYAILKPTEKWIPHRESFDNEADADTSDNQLADALNQVQDANSPEGTNTKVINTPEGQFTITFKPKEKEAAADRTTQQPFGNGYLSVEQANLILNHLPLEITFVNKDDIFQYYNDSVPAAEMVFKRTPSQVGRNVELCHPPKVLDKVKKVFELLRNGQRDKVNMWFQSERLGKFVYVTYAAVRDQAGDFQGVLEYVQDIKPFFELDSEFNRDEGHHHHHH”, the “soluble on expression in E. coli” value is on record as “soluble”.
Then “MSLADKVVNIGFSGPLSGGAAAYGKDTLSGLQMAVDTLNKSGGIKVGNDKVTFKVVSLDDRYLPNETATNVKRLTGQDIQFIFVPHAGGIQAVQPLAIRDPEFLLVAYSSEPKILAANNPLTFMLPPRYDNYAQPFVATEMKTFGKKLALVGTSSAYGKQWADLIESEWKKQGGTVGRDNAVDYNTTVDFSAAVTKALSEKPDVLFIGGPSQPTALVIKAAREQGFKGGFIVMDQAKFEQMETVIPKNYLDGSVGVLPTRDFPGTQSFVVQYQRAYKKIPTSEAGLNYMGMNVLAKAMELAGTTSDPRKVRAQLDAAAKALPQSKTVYKVFGVTPQATWTPSEGHHHHHH”, with “soluble”; and “MSLADPGREGHLEQRILQVLTEAGSPVKLAQLVKECQAPKRELNQVLYRMKKELKVSLTSPATWCLGGTDPEGEGPAELALSSPAERPQQHAATIPETPGPQFSQQREEDIYRFLKDNGPQRALVIAQALGMRTAKDVNRDLYRMKSRHLLDMDEQSKAWTIYRPEDSGRRAKSASIIYQHNPINMICQNGPNSWISIANSEAIQIGHGNIITRQTVSREGHHHHHH”, with “not soluble”.
The result for “MSLAEVGSKSVLFVCLGNICRSPIAEAVFRKLVTDEKVSDNWAIDSSAVSDWNVGRPPDPRAVSCLRNHGISTAHKARQITKEDFATFDYILCMDESNLRDLNRKSNQVKNCKAKIELLGSYDPQKQLIIEDPYYGNDSDFEVVYQQCLRCCKAFLEKTYEGHHHHHH” reads “soluble”.
Then “MSLAFEPPRRLVRAFGETAPEGDDWLATLPEVAERAVARRGLTVERVQVPGGRSSLVVLVRTAEGAPAVLKLAPRRARPESERAALVHWGGRGAVQVREEGDEEGVLLLERLHPDVSVRSLPEAKALLEAAGTLRRLWVEPPGSHPFETVAERTGRQAEAMRAGAAADAQVAPLVDAALAARAELLGGPSEQRLLHGTFRQSKVLAGDRMPWLAVGPDPVVGESAFDLARLVRDRVEDLIAQPSGASTTRRRIKRLAESLEVDQERLRGWTLFRAVESGVRARRVGRERDAELLLEFAGWLEGHHHHHH”, with “not soluble”; and “MSLAGFVVTDVTVATCSILNPFSSCKSSAPWWTQVEKDLYLRTGWTSAAYIRFQRKKEEELLPADKVVIDLKISRLAPEVQDDPKEDKADWEQRPGGIWLKRTAKRHASDSHSAITSVDVLFGADAVDPRPGWEVKDTPILLDSRTESLEARITVRRGDPLKIKKPVPRINENGRFKIMQLADLHLSTGLGHCRDPVPPELIPGQGCEADPRTLDFIERLLDEEQPDLVILSGDQVNGETSRDAQSPLFKSVKLLVDRKIPYAAIFGNHDDEGNLDRHQSMAILEDLPYSLSSAGPEDIDGVGNYIVEVLGRGNTDHSALTLYLLDSHSYSPDERQFRGYDWIKPNQIRWFKTTAQGLKAKHQQYAYMHMNMAFIHIPLPEFAQRGNYFRGNWSEPSTAPGFNSGFKDALEEEGILFVGCGHDHANDYCALSKNEAQKPSLWMCYGGGAGFGGYGGYGGFIRRVRFFDFDMNPGRVVTYKRLEYGNTDARIDEMMIVDGGMVKGPDEGHHHHHH”, with “soluble”.
On to “MSLAGHQAMHYSRILPNIWLGSCPRQVEHVTIKLKHELGITAVMNFQTEWDIVQNSSGCNRYPEPMTPDTMIKLYREEGLAYIWMPTPDMSTEGRVQMLPQAVCLLHALLEKGHIVYVHCNAGVGRSTAAVCGWLQYVMGWNLRKVQYFLMAKRPAVYIDEEALARAQEDFFQKFGKVRSEGHHHHHH”, for which the “soluble on expression in E. coli” value is “soluble”.
The result for “MSLAILPPDSLETALSQAQQATQAALQAGKNRLQIEILLPDLNPMGLAAGYLPLFAELGSDLKVFFADAGSAALARREWGETAYSVRGVNERLTPIEASDRAIVIVAPTPVEVTAIEQMCLTAGDRPFIMLNPRLQDVAVVGIGYAGRQLRERFLNTLEPCYYLRPLAETVILWRCYPQAWQIWQYRETAPTCLAEFEQRPTSEDIERALSALGKPRAQSFLSRLSALLRALQSEGHHHHHH” reads “soluble”; that for “MSLALRLIERDPYEHPERLRQLQQELEAFRGQLGDVGALDTVWRELQDAQEHDARGRSIAIARCYSLKNRHQDVMPYDSNRVVLRSGKDDYINASCVEGLSPYCPPLVATQAPLPGTAADFWLMVHEQKVSVIVMLVSEAEMEKQKVARYFPTERGQPMVHGALSLALSSVRSTETHVERVLSLQFRDQSLKRSLVHLHFPTWPELGLPDSPSNLLRFIQEVHAHYLHQRPLHTPIIVHCSSGVGRTGAFALLYAAVQEVEAGNGIPELPQLVRRMRQQRKHMLQEKLHLRFCYEAVVRHVEQVLQRHGEGHHHHHH”, “soluble”.
Turning to “MSLALRSLIADARRLVVKVGSSLVTDDGRGLDQAAIARWAAQIAALRAAGKEVVLVSSGAIAEGMQRLGWTRRPKEIHELQAAAAVGQMGLAQVYESEFARHGIRTAQVLLTHGDLADRERYLNARSTLLTLLGLGVVPIINENDTVVTDEIKFGDNDTLGALVTNLIEGDALIILTDQRGLYTADPRKHPDARFVDEAQAGAPELEAMAGGAGSSIGKGGMLTKIVAAKRAAKSGAHTVIASGREADVLARLAGGEAIGTQLRAPTGRMAARKQWMIDHLQLRGRVVLDAGAVDKLTAGGKSLLPIGVTEVQGEFARGEVISCVDTAGREVARGLTNYSAAEARLIARKASSEIEAVLGYVSAAELVHRDNLVLLEGHHHHHH”, the “soluble on expression in E. coli” value is recorded as “soluble”.
Then “MSLAMNKVPGYNIYIGGVFALKNKVAMSGANITHVLSVIRLRPKDDLFAGYQHHRIEVDDLDDENLLEHFPSAIKFIQSGLDAGGGVLVHWPLTASSAMGKSRSATVCIAYLLRRQRNALTPQSALALLRESRPLCEPNPGFMEQLNVYYQMGEGHHHHHH”, with “not soluble”; and “MSLANAIRRSIPKLNRALVLPAFRSFHDEFSSKIPLEDIRKQTKGKEQHVPSARSIAAKYQVFRDTDAPVILDVDEERQIHEAGLQQPEKIHDLPDMYSGINLSRGKTGVYEIEDLVTVLRLNSAINIFVCTVPKDIKYVDYMCIVTGRSVRHMRGMAEFVRKVFKMKRHPSDIIPKIEGESSSDWMALDLGNIALHIFSTKAREQYDLESLWSVGSEFDREYNKPSEELVQLFEKHTIYLDDLKPLKKEGHHHHHH”, with “not soluble”; and “MSLANIQEIAKLAGVSSATVSRVINNRDYVSEETRKRVQTIIDKLDYVPNINAVSLKKGATKLIGMVIPSFTDSLNVFLKSFTMMAQEHGYNVTLFMTRIDPDKELEALEMLRQKQIDALVLVIRSNDWKTIEHYTKYGPIVTWQRVESEKIPSVFMNQYDGYTLALEHLYAKGYRKFVNVYGNTTGLNTQSRMLAFKDFCARYELDPHEFRQFYGQGSRQDGEKIAHWWSETEHKPDAFLTPNDYFAAGLLTEARRLGYSVPEDFAICGFDNMEVAHLLDITTIHYPVNLQAENAFTLIMNQLFGSNLPLLDLDFHLVERKTTEGHHHHHH”, with “soluble”.
Then “MSLAQGDTEVPTLYLWKTGPWGRCMGDDCGPGGIQTRAVWCAHVEGWTTLHTNCKQAVRPSNQQNCFKVCDWHKELYDWRLGTWDRCQPVISKSLEKSRECVKGEEGIQVREIMCIQKDKDIPAEDIICEYFEPKPLLEQACLIPCQKDCMVSEFSPWSECSRTCGSGLQHRTRHVVAPPQYGGSGCPNLTEFQVCQSNPCEEDESLYSLQVGPWSACSVPHTRQARQARRRGKNKEREKERGKAVKDPEARELIKKKRNRNRQNRQENRYWDIQIGYQTRDVTCLNRTGKSADLSFCQQERLPMTFQSCVITKECQVSEWLEWSPCSKTCHDVTSPTGTRVRTRTITQFPIGSEKECPALEEKEPCVSQGDGAVLCATYGWRTTEWTECHVDPLLSQQDKRRANQTALCGGGVQTREIYCIQTNDNMLSHGNTEGHHHHHH”, with “not soluble”; and “MSLAQIKSLFATRLYHAPLSEHGPALDPAEFAASCYSIAEDDDAGQEWCEREGYPGYTSYASLTDLPWRFPIFADLVKSLDAHVAAFAEDLEFELDGKALRLEDIWINILPEGGVHGSHIHPHSVISGTTYVAMPEGTSALKLEDPRLPFMMAAPTRRKGAREELRTFRSVAPKVGDVLLWESWLRHEVPMNMAEEDRISVSFNYAWGEGHHHHHH”, with “soluble”; and “MSLAQISSLFVTRLYHAPLSDHGPAIDAEEMESSCYAIAEDDEAGQGWCEENGYPGYTSYASLTDLPWRFPIFADLVKSLDAHVAAFAEDLEFDLDGRALELEDLWINILPEGGSHASHIHPHSVISGTTYVSMPGGTSALKLEDPRHAMMMAAPARRKTARDELRQFIYVTPAVGDVLLWESWLRHEVPMNMSEDDRISVSFNYRWAEGHHHHHH”, with “soluble”.
Then “MSLAQWNKQDSIRLQELLNGDGELKINTEAVKSIHFDFQSDKDNIKGTPIMSEDKPWMKFLKDLPKNFGDTTKWVRPNFVRLTPYTPYTTWHEDPVNDPIFLKRKDSLTISWKLNIKLIPGLRNGYVILPAGMDQTVTPSNNPLIGGLDADKFLYESLTKRGRAIRRNRNRAKGWKIYQSYVPTRQDSILFPRISKVSEQDSLPKQDTLLIKKDSAIINQNSLLLKDKINGKDQTEGHHHHHH”, with “soluble”.
Turning to “MSLARNLKADKTKTIGVIVRDITGFDTSRTIRGVDDFCKGCDYNALIYNTDFDPETEAKSLEALYQMRVDGIIIASSGQNNTLISEYIDKGMPIVHFQLEHDGSEKNLILSDYRQAAFDATEYLIKLGHKRICFMTQDFKNVKSRNERYSGYVAALKKYDIVQDPALIQYWQRETGFDHSPKSVLESAAAPTAFFTQHLAITTELLTHLNQENITIPDDVSLIGFDDIPMAEFFKVPVTVIKQEPYIIGKEAAKLLLEKVNDKNRHSQKIMISCSITERQSCTEGHHHHHH”, the “soluble on expression in E. coli” value is “soluble”.
In the case of “MSLASVDPYEHLNAWVSAIETSGVLVLATRGGKVAIDEMRGMCLYFDELPVIVLNGSDHPRPRLFSLLHEFVHVVLHTEGLCDVIADAHPSTQDRSLEARCNAIAAAVLMPADVVRARPEVIVRSETPSSWDYESLRPVAAHFGVSAEAFLRRLSTLGIVPVEVYRQRRAEFIAAHEDEAERARSAGGGNWYRNTVRDLGKGYVRAVTDAHRRRVIDSNTAAIYLDAKVSQIPKLAESAELRSVEGHHHHHH”, the “soluble on expression in E. coli” value is “not soluble”.
The result for “MSLATALVLGYSAFDLGLFSDKDPRLKLIKKAIRKDLEAMAADGVSWLVFTGSLGFEYWVLEVAQEMKTEYGFQLATIFAFETHGENWNEGNQMKLSRFKQVDFVKYAYPRYEHKGQLRDYQQFLLENTTSSYLFYDEENETKLAYFYQKMKNQEDYFIKRLTFDQLNELAENFSENEGHHHHHH” reads “soluble”.
